Values of other authors as cited in PMC8469970.

Target: Galectin-1 (Homo sapiens) (UniProt P09382)

Galectin-1 (from UniProt P09382)
Kd: 7 µM
